# B1: E. coli RecQ (wild type, full-length, hexahistidine-tagged) (enzyme)
# chain: not shown
# B2: E. coli RecQ Q428A (enzyme)
# chain: not shown
# B3: E. coli RecQ R448A (enzyme)
# chain: not shown
# B4: E. coli RecQ S421A (enzyme)
# chain: not shown
# Assays:
# [1] = target: T1, E. coli single-stranded DNA-binding protein (SSB), wild type (E. coli, UniProt P0AGE0 1-178); assay: cell-based or functional assay
# [2] = target: T1, E. coli single-stranded DNA-binding …; assay: ammonium sulfate co-precipitation
Binder,SSB binding in solution relative to wild type [2] [%],further results
B1,–,Fold stimulation of RecQ helicase activity by SSB [1]: 9.7 fold
B2,~3,–
B3,–,co-precipitation with SSB relative to wild-type RecQ [2]: ~80%
B4,~40,–

# From publication PMC2735845 (Journal of molecular biology, 2009)
